Like-named read-outs stand apart in the source and are kept apart here.
Legend:
[1] = target: FLA10, the 90-kD subunit of FLA10 kinesin-II (fla10 gene product) (Chlamydomonas reinhardtii (endogenous in flagella)) (UniProt P46869); test: SEC + other: sucrose density gradient centrifugation
[2] = target: FLA10, the 90-kD subunit of FLA10 kinesin-II (fla10 gene product) (Chlamydomonas reinhardtii (endogenous in flagella)) (UniProt P46869); test: as above; remark: listed apart in the source
[3] = target: T1, p172, IFT particle polypeptide of complex B (Chlamydomonas reinhardtii (endogenous in flagella)), Q5DM57; test: sucrose density gradient centrifugation; settings: remark: other sources report otherwise
T1 chain: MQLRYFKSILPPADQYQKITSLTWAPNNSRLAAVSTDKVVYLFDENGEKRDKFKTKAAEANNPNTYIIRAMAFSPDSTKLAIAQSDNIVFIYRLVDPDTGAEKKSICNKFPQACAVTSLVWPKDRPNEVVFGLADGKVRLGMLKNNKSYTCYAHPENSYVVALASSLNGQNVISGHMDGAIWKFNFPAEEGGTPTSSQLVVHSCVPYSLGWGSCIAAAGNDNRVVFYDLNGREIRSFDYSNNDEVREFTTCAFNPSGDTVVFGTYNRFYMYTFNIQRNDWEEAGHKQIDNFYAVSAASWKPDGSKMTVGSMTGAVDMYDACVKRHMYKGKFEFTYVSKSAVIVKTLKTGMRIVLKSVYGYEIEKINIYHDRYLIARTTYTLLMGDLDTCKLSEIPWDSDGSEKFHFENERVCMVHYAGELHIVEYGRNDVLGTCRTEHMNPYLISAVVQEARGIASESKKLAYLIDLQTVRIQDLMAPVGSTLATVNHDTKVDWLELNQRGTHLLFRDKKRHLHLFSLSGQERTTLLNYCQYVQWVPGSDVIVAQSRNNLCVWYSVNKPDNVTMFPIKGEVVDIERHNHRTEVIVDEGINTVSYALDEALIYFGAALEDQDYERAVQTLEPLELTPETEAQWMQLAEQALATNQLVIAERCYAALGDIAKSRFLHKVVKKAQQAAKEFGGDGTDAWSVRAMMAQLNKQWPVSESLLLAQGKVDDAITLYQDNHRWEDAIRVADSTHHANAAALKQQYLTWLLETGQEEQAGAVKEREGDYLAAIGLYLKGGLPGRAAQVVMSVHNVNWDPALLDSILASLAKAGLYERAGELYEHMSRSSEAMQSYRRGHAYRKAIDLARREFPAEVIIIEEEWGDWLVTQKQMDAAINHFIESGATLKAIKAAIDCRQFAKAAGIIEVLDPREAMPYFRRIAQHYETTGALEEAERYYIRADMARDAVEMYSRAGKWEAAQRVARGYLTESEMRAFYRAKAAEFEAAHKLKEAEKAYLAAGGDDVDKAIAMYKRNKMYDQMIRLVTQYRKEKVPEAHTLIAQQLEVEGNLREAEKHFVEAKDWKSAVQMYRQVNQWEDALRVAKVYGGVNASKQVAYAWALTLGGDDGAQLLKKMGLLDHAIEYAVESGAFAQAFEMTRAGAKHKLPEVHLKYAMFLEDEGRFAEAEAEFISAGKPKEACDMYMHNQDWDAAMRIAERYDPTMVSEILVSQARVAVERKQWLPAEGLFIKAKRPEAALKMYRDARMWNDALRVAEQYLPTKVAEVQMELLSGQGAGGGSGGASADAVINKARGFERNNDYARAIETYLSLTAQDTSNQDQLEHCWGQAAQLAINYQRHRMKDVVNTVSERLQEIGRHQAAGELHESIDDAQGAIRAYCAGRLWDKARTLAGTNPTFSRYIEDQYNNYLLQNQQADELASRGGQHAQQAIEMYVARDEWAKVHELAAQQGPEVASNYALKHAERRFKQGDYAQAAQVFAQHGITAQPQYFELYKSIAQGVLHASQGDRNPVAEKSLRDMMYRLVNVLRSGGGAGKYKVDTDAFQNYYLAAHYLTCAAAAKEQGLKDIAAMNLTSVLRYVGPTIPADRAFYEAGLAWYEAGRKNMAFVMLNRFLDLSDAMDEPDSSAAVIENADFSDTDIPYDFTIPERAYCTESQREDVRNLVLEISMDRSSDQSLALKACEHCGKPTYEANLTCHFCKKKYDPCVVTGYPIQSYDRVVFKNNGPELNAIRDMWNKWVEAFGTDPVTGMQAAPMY

[4] = target: T2, FLA10, the 90-kD subunit of FLA10 kinesin-II (fla10 gene product) (Chlamydomonas reinhardtii (endogenous …, UniProt P46869 1-786)); test: SEC + other: sucrose density gradient centrifugation
T2 sequence (looked up): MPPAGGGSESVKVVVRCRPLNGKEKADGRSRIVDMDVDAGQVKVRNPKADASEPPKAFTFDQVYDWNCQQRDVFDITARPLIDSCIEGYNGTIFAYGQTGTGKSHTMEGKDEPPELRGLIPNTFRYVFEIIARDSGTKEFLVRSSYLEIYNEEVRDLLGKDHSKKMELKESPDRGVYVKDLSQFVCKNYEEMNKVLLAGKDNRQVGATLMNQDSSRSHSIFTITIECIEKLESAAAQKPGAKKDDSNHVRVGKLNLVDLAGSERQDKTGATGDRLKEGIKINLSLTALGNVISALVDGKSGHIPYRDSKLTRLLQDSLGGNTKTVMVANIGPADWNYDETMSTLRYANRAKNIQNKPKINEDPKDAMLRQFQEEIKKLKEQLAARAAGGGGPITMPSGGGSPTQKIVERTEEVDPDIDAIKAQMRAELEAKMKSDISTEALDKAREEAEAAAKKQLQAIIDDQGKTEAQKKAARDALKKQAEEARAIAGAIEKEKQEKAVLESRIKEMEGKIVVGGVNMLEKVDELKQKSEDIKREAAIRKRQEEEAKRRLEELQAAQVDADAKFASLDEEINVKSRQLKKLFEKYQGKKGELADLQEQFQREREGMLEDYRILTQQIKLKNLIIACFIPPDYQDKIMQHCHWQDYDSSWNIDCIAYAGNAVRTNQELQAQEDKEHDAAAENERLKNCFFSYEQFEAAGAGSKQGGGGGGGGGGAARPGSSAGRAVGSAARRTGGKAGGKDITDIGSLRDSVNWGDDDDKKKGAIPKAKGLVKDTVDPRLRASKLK

## 100-kD nonmotor subunit of FLA10 kinesin-II (natural protein)
[1]
  stoichiometry N: 0.8
[2]
  stoichiometry N: 1

B1: p81, IFT particle polypeptide of complex B, Q68RJ5 1-683 (natural protein)
chain: MGDVSYIVDSLGLPPFSYQMSLLSFTEKGPQELLQLLSDVFSTISPKHQKVDVAKEVPDQTADRLIGFLKIIKYRPNVQDPLLFRQLVAAGDRETLYQILRWVVPQAQLLEKRAFVGYYLSFPDMPEEFNFDPDIMELKEEIKAMQQEFIELHKSSDAIKTLSKDTQALKNKIKSLEEEKERLGEKVERAKGAVDKLPDRSSYMEVCTNLRKQQDEEVNLSTAIQTQRALQEKAEASYHRAAARLRELQTSYQEGSAGKLLETLNEDVKNLRAQVNERYPKEVEKRQKRQAALSEALASGISTEMDLQRLQHQATALHNQITEIQERKVAQDKARQGDKAYLQLRQAQQMATVSARKKEELGAKQERLQEKKTALTAQLDKLNAEGGGSGAVFSEEEWRTKYESMKSKLPIYKKMKKELGDLEAEVFVLAHTEELLASQEGGLLEKVKRLEKQQGISGFTETAQHLEKVSEAKSQMDEEKGMTLIEISRTVEEINNAINQRKQQLAPQIKKLRSVRQDFAEFEAKYLEKKTAYDNVVATFEARTSALEGEVSGLKAEVSENETKYHMLHCQLHITDQNIKKVTSGPAAERLRDKYEAKVKEAEDSTKALRDRQREIKDTHSTGLSQIDIMNDMLRLLQLKLNLARGIAVDMSQYGGGGGAAGGANGGMAGQTYDTGSANVLQL
[3]
  stoichiometry N: 1

B2: 85-kD subunit of FLA10 kinesin-II (natural protein, UniProt A7LGV1 1-768, looked up)
chain: MASGGECVKVAVRCRPLNGKEKGDNRATIVEVDNKTGQVTLNNPKGDEPPKTFTFDNAFDWNVTQRDVYDVVARPIVNSVMDGYNGTIFAYGQTGTGKTHTMEGFPTPELQGIIPNCFDHVFETVNSSTGKQWMVRASYLEIYNEEVRDLLSKDPKNKLELKEHKDSGVYVKGLNAFVVKGVPELKNVLEVGKKNRSVGATLMNQDSSRSHSIFTITIETIEQTQAQPEGHIRVGKLNLVDLAGSERQSKTGATGDRLKEATKINLSLSALGNVISALVDGKSGHVPYRDSKLTRLLQDSLGGNTKTIMCANMGPADWNYDETLSTLRYANRAKNIKNKPKINEDPKDAMLREFQDEIARLKAALEAEGGALPEGFATGPGGEIIVEKVVQVPKALDASFLEQMRKDMEEQMKKELASQQAAALNDEQLQKVKEEAAAKAKAEAARLEEEKKKAEEEAARMQRKQQKIKAEMDKKSLDAEQIRAEKEALAKKLKAMESKILKGDQAGGLAEVTKKKEEELKRKEQELERRRKEEEEQRKKIQVMEEQQLAMEDKYKDKADEADQKTKKLKKLWKKFQEVNAEVEDMYKEFQREKEDLLESIRMLQDQMQLKDMVIEAFIPPEEVQKVMKRAHWDDEREVWVLERLSDIGKRETAQGASRRPVSASGQRRPTSDFAKLANAMGDMNPRFKSENILNLELDLPERTTYDYEGPGVDPRVQAAINAAFAEDGELIFVGSEQNVHLGDASAAAARPDSAKKRPASARKGTKK
[4]
  stoichiometry N: 1
